Results published in the DeepSol protein solubility set.

Assay: soluble on expression in E. coli; label from the status in PepcDB or PDB records

Soluble on expression in E. coli, not soluble:
MGSDKIHHHHHHNRDPHEGERGLTVAIDNTQCPDVPIGAIKLYIYGTGGNLYATYNYADARGIASVLHPLEAGHYTVAVVINADEEAAETSTLTALHEWLEIEMSHETNLLSGIAEVNVTEDGISPVTVFLQRGVFTLSTLRLQLTLPAPKLPDYTPEKSKTRAAGTANTIRCVAELCKAGTDIVVLHKAVTPVPQADGTYLVELELAEGSYDLRLWTDYARADNPLADTFYHTESLKAVTIVTKPYTANTDAKDAAYYNKSDITLSKEGATMNVQLQRPLAKYRLIAKDVENYRKLMEAKPDIYPPLKNLTVKVLYEGYFPSGFNVSTGKPNDAVGGISYSQVSLHYNDVDNEVLLGGDWVLVNGTESLVNVTVTVTDNLGNTLCRASGVKINYRNSHLTTVYGNFLTAGINKGGIDINTEWSGIYNVWF, MGSDKIHHHHHHNRRELTYSPEATITISADWSQSGLNEKEQDYGATAIFYPTDGSTPFVALMGDRTYKTLCLKEGCYNVVLFNRSFDDFGNLCFRGEENYQTLEAYVKKMEIRNESSSERIIMESPDELAADYIEGFEVTSDMPENYSSAITQQSNRNSTRNENSCHLRFTPKKLTQKITVKIRIKGMNNIRKATCTLDGIAESIFLVSKQNSEKTVTQVLRLSNPIYDSGSVTEGTLSTTISVFGFDVEIPHNLHLKAKLVDGKTIFEESFNDLAIRRLDEEDGTMSVFIDMACEKTVPNVKTEGSSGFDADVDKWNDEVNSDIDI, MGSDKIHHHHHHQTKAEKNGWRLGMQSYSFHLFPLTEALDKTQELGLKYIEIYPGHKLGGKWGDKVFDFNLDAQTQKEIKELAASKGIKIVGTGVYVAEKSSDWEKMFKFAKAMDLEFITCEPALSDWDLVEKLSKQYNIKISVHNHPQPSDYWKPENLLKAISGRSQSLGSCSDVGHWRREGLNQIDCLKQLKGRIISLHFKDIAPKKAGENEQHDVIWGTGILDVKGMLKELKSQNFKGVFSIEYEYNWENSVPDIKECIQYFNKTANEIL, MGSDKIHHHHHHRECVQTSLSWRNDTTGIWETAGWWNSANVLTATIRYGAVTKDPAIPSVIEDVFEKARHYQVGVDSTGTPRYCDNFINDYYDDEGWWALAWIEASKLTGEKKYLDMAEIIFDDMTTGWSDACGGGIFWKKNPLHYKNSIANNLFSLTAIRLYKATQNPAYLDWFKKNVDWYMRTGMINTNIYQIEDGTKDDCTPNRNAHYTYNQGVAIAVLAEMYLQTNDKSYLELAEKIADATITTQLITDEGILREMKPEIDDSNDGVQFKGIFIRHLAFLYEVTKNPAYKDFILKNAESIITKDYDPTSKSFGCYWYGPFHKENSAANACALECVIEAYDLTK, MGSDKIHHHHHHSDKKNTADESEKGVSTVLPDTKNEVAVQILKKRDFHHELVSNGKISARGKADLRFETGEVIAHIYVKNGDRVQKGQKLADLDKFRLEQKLSQSEDALLKAELELKDVLIGQGYSPDDFSKVPAETMKIAKVKSGYEQSKSQYELAKREMEHATLIAPFDGVVANLFSKPYNPANTSEAFCTIIDSKGMEADFTVLENELAFIRMGDKVVITPYAGGDAFEGSVSEINPLVDANGMVKVKALVNAGGKLFSGMNVRVSVRRSLGERLVIPKSAVVLRSGKQVVFTLKDGKAMWNYVNTGLENAIECVVSDKSQKGIEDGLLEGDTVIVTGNLNLAHEAEVYVK, MGSDKIHHHHHHSKDKKSTDTKQTETKKTAKTDGTMTDGTYKLEEKNFDDKGWKGFMSIEVKDGKITKANYDYKNKDGKLKSEDADYEKAMKDKVGTGPQEYLKQLSDSLVKGQSASSVEVVSGATHSSDAFINYANQLIQAAQKADTTTISINNLAKMEDGTYKLEEQNYAHGYRVVFSMDVKDGKITKSDYNYVDKDGKLKSDDADYEKNMKAKSGTGPKEYIPALNKSLVEKQDVAAVDTVSGATNSSNQFKIYAAQLQNAAQNGNTDTIKVYNLVEAE, MGSDKIHHHHHHSLDQAKKLYNDGKYAEAKPVFEKLVKQAPSNASYNQWYGVCCFETGDLAGAEKHLKVAVKRRVQDAYRYLGEVYYQTYRFNEAEEMFDEYITLLTKKKQDVEPYQIRMDLANKASRMLDKVENVQIIDSLVVDKDNFLSAYTLSEESGTLTTYQDFFQTNDPGNSSVYMNQKEDKIYYAHSTDGNHNCLFTQSKLIDQWGDEKQLPMNINSDADDGYPFVLSDGVTIYYASKGNSSLGGYDLFVTRYNINSDTYLTPEQLGMPYNSPFNDYMMVIDEAKQLGWFVSDRYQPEGKVCVYLFIPNDNRERVDSEDIELKRARASIASIKDSWKPGSNYEELIHLAHTEIPYGRIEIKKDFTFPIHNDIVYYTLDDIQSPEAKNYYEKVVSIHKQIKELNEKLESLRASYIKGNKAKREQLKPTILDTEEKLNNLLGQPDEWEKKARNAEIVYLRNNHK, MGSDKIHHHHHHTEETAKVVPMAVITPAINQLTDQEKAEGWALLFDGKTTKGWRGAHKDAFPDHGWMVKDGELIVQKSDGSESTNGGDIVTEGEYSAFEFSVDFKITEGANSGIKYFVTEQEKQKGSAYGLEFQLLDDAKHPDAKLYTTFPGSRTLGSLYDLKKSENIHFNGVGEWNTAVVKVFPNNHVEHWLNGVKVLEYERGSKEFRDLVKGSKYADPSYNAGGAFGEAPKGHILLQDHGDEVAFRNIKVKELK, MGSDKIHHHHHHTQRWLSGNISNFQYLMHLNTLAGRCYNDLSQYPIFPWVLADYTSSQLDFNNISTFRDFSKPMGAQSPDRLEQFLKRFREWDDPSGETPPYMYGTHYSSAMIVVSYLVRLEPFTQQFLSLQGGHFDLADRMFHSVGDAWTSASRNNMADVKELIPEFFTLPEMFTNTNHFDLGVKQNGIHVNDVLLPAWCHGDPREFIRLHRQALESDYVSSHLHEWIDLIFGYKQNGEEAVKNSNLFHHLFYEGSVDFERIDDPLTRNATIGFVNNFGQIPTQLFKKPHPQK, MGSDKIHHHHHHVAISVAGGVRPGKIIEIEHRLYQQLILGKHKASPTLLDDLDLELEADANKLDVEREAILARLMKQIKAKEVFEAVSSQLHETVNNAIEHQLASPELVLAKSEINESQILLLELLLAKNLDATRLRPLISNLSWLCRDLTNMVNSPSFRARRPQSSDVRVTDIKLVMNYIGIENLRTIIPYFCLRNWLPSANAKLLWTTRKLWRYSIVSGIAANALAQLHNTDSALVYSSALLNQLGTSVVLSLSARLFDQTWGAWIREASSSRDKEVYDAVIATEFPAKAVFEQVLSHGHKLNWQLLELLKFEASPLTGLLKELDLTLSYRELSPQAALVARANCYAKVVLLEEMRQIDPQEKRLMFDYYELTEQEVLRLKAQNYRKLDLL, MGSDKIHHHHHHVAQDVITQAPLGFGLGLRTQHFDAVLNTEPDIDWFEVLSENYMVAGGKPRYYLKEIGERYPLVMHGVSLSIGSTDPLNMDYLKALKQLANDVQPQWISDHICWTSIHGVNSHDLLPLPYTEETVKHVAQRIKTVQDFLGRRILMENVSSYLSYQDSSMDEWEFVNAVAEAADCLILLDINNIYVSARNHNFNPLDYLNKINPKRVQQFHLAGHSDYGDYVIDTHDHDVPSCVWDLYCAALKRFGGISTMIERDANIPEFYALEAELTIARNIARDTLGKAHPLNAAKNRKNMHEGKVIA, MGSDKIHHHHHHVARRKEHTHEQIRHMAISAVVEHLQCHGVDNLSLRKVATTIGYVPSTLINIFGSYQYLLLAVSEQTLLQLAAQLQLIKPTTPTKTIEQMAIVYSQFALANRRCFRLVFELTMTDDQPLPAAHLGLIKSLFSDVEFQLSQYFPSACEQEVEMMSRVLWGGIHGLTCLSLDGKLFETQSCLQDMLTSHVSSYIDGMSIKRNSNAAN, MGSDKIHHHHHHVAVWNPWRGCHRYSEGCKFCYIHKGDMKRGMDTNLIVKSAKFNAPVAVNKQGHYIMKSGQLVYCCFSTDFLLEDADPWRDECWSMMKERPDLHFLFLTKRIERFSQCLPGDWGEGYENVTVGCTVENQHTADERLEIFSKLPIKHKNIALQPMLEAIDIEKYLEGIELVVVGGEYDRNARPFDYEWALAVREQCIRHQVSFSFRQCGTNFIQNGKLRRLNYGMLFKCARESNIDYQAGRE
